Experimental data: article PMC6335408
Each block holds one substance with its values, some of them ahead of it.

Assays:
[1] = molecular target: USP7 C-terminal tail peptide (residues 1083-1102), biotinylated (UniProt Q93009); assay: SPR; N-terminally biotinylated C-terminal tail peptide immobilised (~30 RU) on SA chip, CD or CDUb flowed over; Biacore T200, 25 °C; same running buffer
GST-Ubl45 (immobilised) [2] = molecular target: GST-Ubl45 (immobilised) (UniProt Q93009); assay: SPR; GST-Ubl45 or GST-Ubl45ΔC captured by anti-GST antibody on CM5 chip, covalent CDUb flowed over; Biacore T200, 25 °C; same running buffer; equilibrium fit and EvilFit
GST-Ubl45 (immobilised) [3] = molecular target: GST-Ubl45 (immobilised) (UniProt Q93009); assay: SPR; around 50 units of Ubl45 immobilised, titration range of p53Ub-bound TCD flowed over; equilibrium fit
[4] = molecular target: USP7 catalytic domain CD (Homo sapiens) (UniProt Q93009); assay: activation assay; details: cited from earlier work
[5] = molecular target: USP7 CD45 (catalytic domain linked to Ubl45); assay: SEC-MALS; Superdex 200 in 20 mM HEPES pH 7.5, 100 mM NaCl, 1 mM DTT, in-line MALLS; CD45 100 µL of 45 µM, FL 80 µL of 20 µM loaded
USP7 CD12345^ΔC = USP7 CD12345^ΔC (UniProt Q93009)
[6] = molecular target: USP7 catalytic domain (CD)
[7] = molecular target: TAMRA-labelled p53 peptide (UniProt P04637); assay: fluorescence polarisation; 25 nM TAMRA-p53 peptide with a dilution series of USP7 constructs; plate reader; 20 mM HEPES pH 7.5, 100 mM NaCl, 1 mM DTT, 1 mM EDTA, 0.05% Tween-20
[8] = molecular target: USP7-TCD (TRAF domain and catalytic domain, lacks all Ubl domains); assay: covalent suicide-probe reaction (preparative); 120 µM CD (or TCD) incubated overnight with an excess of probe and Ubl45 (both 150 µM) under dialysis against 20 mM HEPES pH 7.5, 50 mM NaCl, 2 mM DTT
[9] = molecular target: USP7 CD12345 (catalytic domain with Ubl domains 1-5 and tail, no TRAF domain) (UniProt Q93009)
[10] = molecular target: USP7-TCD (TRAF domain and catalytic domain, lacks all Ubl domains)
full-length (FL) USP7 = full-length (FL) USP7 (UniProt Q93009)
[11] = molecular target: USP7 catalytic domain (CD); assay: covalent suicide-probe reaction (preparative); 120 µM CD (or TCD) incubated overnight with an excess of probe and Ubl45 (both 150 µM) under dialysis against 20 mM HEPES pH 7.5, 50 mM NaCl, 2 mM DTT

Kd [1]: 2.6 µM | Kd (GST-Ubl45 (immobilised) [2]): 0.59 µM | koff (GST-Ubl45 (immobilised) [2]): 0.8 s⁻¹
Substance: CDUb (USP7 catalytic domain covalently coupled to ubiquitin through Ub-PA) (from UniProt P0CG48 1-76) (complex)

Kd (GST-Ubl45 (immobilised) [3]): 2.9 µM
Substance: TCD-p53Ub (USP7-TCD covalently bound to the p53UbVA probe) (from UniProt P04637 357-389; P0CG48 1-76) (complex)

Substance: USP7 C-terminal peptide C-terminal tail (from UniProt Q93009)
Kd [4]: 1000 µM

stoichiometry N [5]: 2
Substance: USP7 CD45 (catalytic domain linked to Ubl45) (domain or fragment)

apparent KD (K (D,app)) from activation of CD12345^ΔC (20 nM) DUB activity on UbRho, titration of CD12345^C223A (USP7 CD12345^ΔC): 60 µM
Substance: USP7 CD12345^C223A (from UniProt Q93009 1-1102) (domain or fragment)

apparent KD from in trans activation of CD (20 nM) DUB activity on UbRho, titration of Ubl45 [6]: 110 µM
Substance: USP7 Ubl45 (last two Ubl domains with the activating C-terminal tail) (from UniProt Q93009 890-1102) (domain or fragment)

Kd [7]: 0.16 µM
Substance: full-length (FL) USP7 (from UniProt Q93009 1-1102) (enzyme)

Substance: p53UbVA (covalently binding, vinylamide-linked ubiquitinated p53 peptide, res. 357-389) (from UniProt P04637 357-389; P0CG48 1-76)
percent reacted with the probe [8]: 100%

IC50 of inhibition of UbRho hydrolysis by p53Ubinh (CD12345 0.35 nM): fold by which the IC50 of FL is better than that of CD12345 [9]: 60 fold | IC50 of inhibition of UbRho hydrolysis by p53Ubinh (TCD 200 nM): fold by which the IC50 of FL is better than that of TCD [10]: 60 fold | IC50 of inhibition of UbRho hydrolysis by p53Ubinh (FL 0.35 nM, UbRho 0.4 µM) (full-length (FL) USP7): 0.016 µM
Substance: p53Ubinh (non-hydrolysable, triazole-linked ubiquitinated p53 peptide) (from UniProt P04637 357-389; P0CG48 1-76)

Substance: ubiquitin-propargyl (Ub-PA) suicide probe (from UniProt P0CG48 1-76)
percent of CD reacted with the probe [11]: 80%
